Experiment: Pharmacokinetics of a single-dose subcutaneous administration using SD rats (concentration of cagrilintide in blood)
Assay type: in vivo
Details: s.c. 1.2 mg/head
Description: In order to evaluate a potential of the microsphere according to the present invention as a sustained-release therapeutic agent, the concentration of the cagrilintide in rat blood was measured by the following method.
Specifically, the microsphere was measured so that a dosage of the cagrilintide becomes 1.2 mg/head (API raw material solution, Example 5-6) or 3.6 mg/head (Comparative Examples 1 to 2, Examples 1-1 to 1-3, Example 5-1), dispersed in 0.5 mL of a suspension, and then subcutaneously injected into SD rats. 0.25 to 0.5 mL of blood was collected at prescheduled times and the concentration of the cagrilintide in blood was measured using HPLC.

## cagrilintide [API raw material solution]
Day 0, cagrilintide
  cumulative blood concentration: 0.0%
Day 0.042, cagrilintide
  cumulative blood concentration: 0.2%
Day 0.250, cagrilintide
  cumulative blood concentration: 4.5%
Day 1, cagrilintide
  cumulative blood concentration: 35.2%
Day 4, cagrilintide
  cumulative blood concentration: 91.1%
Day 7, cagrilintide
  cumulative blood concentration: 100.0%

Reference: patent publication EP4721730A1, “PHARMACEUTICAL COMPOSITION COMPRISING SUSTAINED-RELEASE MICROSPHERE COMPRISING CAGRILINTIDE OR PHARMACEUTICALLY ACCEPTABLE SALT THEREOF AND PREPARATION METHOD THEREFOR” (G2GBIO, Inc., priority 2023, dated 2024)
